This note sets out measurements from patent US20250368729A1 (ATTRALUS, published 2025).

Where a chain is given by its changes, count along the chain named. Names may count otherwise.

For assay [1], the target named is T1, synthetic amyloid-like fibrils of recombinant amyloidogenic λ6 variable domain protein (rVλ6Wil).
T1 construct: domain: λ6 variable domain; Fibrillar aggregate of many copies; also called rVλ6Wil fibrils; rVλ6Wil synthetic fibrils
Description: pulldown, labelled antibody.

Assay [2] has as its target T2, Aβ(1-40) amyloid-like fibrils (UniProt P05067 672-711).
T2 construct: domain: Aβ(1-40); Fibrillar aggregate; The numbers 1-40 count on Aβ, not on the precursor; also called Aβ(1-40) fibrils
Description: pulldown, labelled antibody.

Assay [3] concerns the target T3, hIAPP fibril (UniProt P10997 34-70).
T3 construct: Fibrillar aggregate
T3 chain (looked up): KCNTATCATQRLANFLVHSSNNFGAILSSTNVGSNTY
Description: pulldown, labelled antibody.

In assay [4] the target is T1, synthetic amyloid-like fibrils of …. Description: EuLISA, substrate coated on plate. The procedure:
(§1) To perform europium-linked immunosorbent assays (EuLISAs), suspensions of rVλ6Wil fibrils (sonicated) were prepared at 0.83 μM in phosphate buffered saline (PBS). The fibrils were coated onto the wells of a 96-well microplate by adding 50 μL to each well. The plates dried at 37° C. overnight. The wells of the microplate were blocked by addition of Superblock (Thermofisher) (SB) using 200 µL/well, and left at 37° C. for 1 hour. The primary (test) antibody (i.e., the humanized antibody) were added, prepared in SB+0.05% tween 20 (SBT) in a 1:2 dilution series starting at 1 μM using 100 µL/well. Plates were then incubated for 1 hour at 37° C. After a wash step (plates were washed three times using PBS+0.05% tween 20), secondary antibody was added as a 1:3000 dilution of biotinylated goat anti-human IgG (Sigma) in SBT at 100 µL/well. The plates were incubated for 1 hour at 37° C. After another wash step, 100 µL/well of a 1:1000 dilution of europium/streptavidin (Perkin Elmer) in SBT was added. The plates were incubated for 1 hour at 37° C. After a final wash step, 100 μL/well of europium enhancement solution (Perkin Elmer) was added. Time-resolved fluorescence emission was detected using a microplate reader (Wallac).
(§2) Table 8, below, provides the results of the ELISAs measuring the ability of mIgp5, hIgG1, c11-1F4, m11-1F4, VH6/VL3-p5, VH9/VL4-p5, and VH9/VL4-p5R to bind rVλ6Wil fibrils, Per125 wtATTR extract, KEN hATTR extract, SHI ALλ liver extract, and TAL ALκliver extract. For each combination of antibody and substrate, the Log-transformed EC₅₀, EC₅₀, and maximal level of binding in the assay is shown. Conditions labeled “na” were not tested.

For assay [5] the target is unchanged. The assay is described as follows: EuLISA, fibrils coated on plate (FIG. 13B).
Assay [6] addresses T4, Vκ4Len(1-22) monomer peptide (Homo sapiens (Human), UniProt P06312 21-42).
T4 construct: Free peptide as analyte in SPR; also called Vκ4(LEN(1-22) beads)
T4 peptide: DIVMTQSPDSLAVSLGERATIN
The assay is described as follows: pulldown, labelled antibody, peptide on beads.

The target of assay [7] is T5, Per125 wtATTR amyloid extract (human, UniProt P02766 21-147). The assay is described as follows: EuLISA, extract coated on plate.
Assay [8] has as its target T6, Per125 wtATTR amyloid extract (human, UniProt P02766 21-147). The assay is described as follows: EuLISA, substrate coated on plate. The procedure:
as §1, §2

For assay [9], the target named is T7, SHI ALλ liver amyloid extract.
T7 construct: Tissue amyloid extract; also called SHI AL liver extract; ALλ SHI extract
Description: EuLISA, substrate coated on plate. The method, then: as §1, §2

For assay [10], the target named is T8, TAL ALκ liver amyloid extract.
T8 construct: Tissue amyloid extract; also called ALκTAL extract
Description: EuLISA, substrate coated on plate. The method, then:
as §1, §2

For assay [11], the target named is T5, Per125 wtATTR amyloid extract. The assay is described as follows: pulldown, labelled antibody.
Assay [12] shares this target. The assay is described as follows: EuLISA, substrate coated on plate. The procedure:
as §1, §2
The source holds these as a separate data set.

For assay [13], the target named is T4, Vκ4Len(1-22) monomer peptide. The assay is described as follows: SPR Biacore 8K, antibody immobilised, peptide as analyte. The procedure:
The affinity of humanized anti-amyloid antibodies binding to Vκ4Len(1-22) (“Len(1-22) monomer”) monomer peptide—the natural ligand for the m11-1F4 antibody—was measured using a Biacore 8K surface plasmon resonance (SPR) system. Parental antibody m11-1F4 binds to an epitope present at the N-terminal of denatured kappa 4 light chain proteins. The Len (1-22) monomer is a peptide comprising this epitope, as described in International Application No. PCT/US2017/015905. Binding affinities of anti-amyloid antibodies incorporating the humanized heavy chain region VH9 and the humanized light chain VL4 were tested, including versions of VH9 and VL4 with additional mutations (Table 5).
All SPR data were processed using the Biacore 8K Evaluation software version 1.1. Flow cell 1 and blank injections of buffer in each cycle were used as double reference for Response Units subtraction.
Table 7 provides the results of SPR assays measuring the binding of the humanized anti-amyloid antibodies to a Len(1-22) Monomer peptide. Specifically, the humanized VH9 and VL4 sequences were tested with or without additional amino acid substitutions, as indicated in the “Ligand” column of Table 7.

Assay [14] has as its target T6, Per125 wtATTR amyloid extract. The assay is described as follows: pulldown, labelled antibody. The source holds these as a separate data set.
The target of assay [15] is Per253 wild type (wt) ATTR amyloid extract (human, UniProt P02766 21-147). The assay is described as follows: pulldown, labelled antibody.
The target in assay [16] is T7, SHI ALλ liver amyloid extract. The assay is described as follows: pulldown, labelled antibody.
The target of assay [17] is T8, TAL ALκ liver amyloid extract. Description: pulldown, labelled antibody.
For assay [18], the target named is T9, HIG ALκ1 amyloid extract.
T9 construct: Tissue amyloid extract; also called ALκ HIG extract
The assay is described as follows: pulldown, labelled antibody.

In assay [19] the target is T10, TYL ALλ amyloid extract.
T10 construct: Tissue amyloid extract; also called ALλ TYL extract
Description: pulldown, labelled antibody.

Assay [20] deals with T1, synthetic amyloid-like fibrils of …. The assay is described as follows: pulldown, 125I-labelled antibody.

T2 sequence (P05067 672-711 limits assumed): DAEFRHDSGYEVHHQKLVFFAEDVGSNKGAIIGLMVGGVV

B1: VH6/VL3-p5 (humanized VH6/VL3 with peptide p5 fused to the N-terminal of the light chain) (antibody, V domains shown)
VH: QVQLQESGPGLVKPSETLSLTCTVSGFSLSSYGVSWVRQPPGKGLEWLGVIWGDGSTNYHPNLMSRLSISKDTSKNQFSLKLSSVTAADTATYYCVTLDYWGQGTSVTVSS
VL: DVVMTQSPLSLPVTLGQPASISCRSSQSLVHRNGNTYLHWYLQRPGQSPRLLIYKVSNRFSGVPDRFSGSGSGTDFTLKISRVEAEDVGLYFCFQTTYVPNTFGGGTKLEIK
Consider B1, for which the percent bound in assay [1] came to 22.5%; in assay [2] it was 20.6%; in assay [3] it was 4.82%; in assay [6], 54.9%. For the same molecule, the concentration giving a half-maximal response (EC50) in assay [4] is 3.49 nM; in assay [5] it was 3 nM. In addition, the LogEC50 in assay [4] was 8.46 -log(M). For the same molecule, in [4], the “Max (maximal level of binding)” value was found to be 65.3. Also, the “fold enhancement of binding over VH6/VL3 (based on EC50)” value in assay [5] was approximately 30 fold.

B2: VH6/VL3-p5R (humanized VH6/VL3 with peptide p5R fused to the N-terminal of the light chain) (antibody, V domains shown)
VH: B1 VH
VL: B1 VL
In [7], B2 yielded an EC50 of 85 nM. In addition, in [5], the EC50 came out at 3 nM and the “fold enhancement of binding over VH6/VL3 (based on EC50)” value is approximately 30 fold.

B3: chimeric (c) 11-1F4 (antibody, V domains shown)
VH: QVQLKESGPGLVAPSQSLSITCTVSGFSLSSYGVSWVRQPPGKGLEWLGVIWGDGSTNYHPNLMSRLSISKDISKSQVLFKLNSLQTDDTATYYCVTLDYWGQGTSVTVSS
VL: B1 VL with S7T, T14S, Q17D, P18Q, R44K, R50K, V88L
notes: also called ch11-1F4; ci1-1F4
On to B3, for which the “Max (maximal level of binding)” value in assay [4] is 63.9; in assay [8], 71.1; in [9], 51.3; in [10], approximately 17800.

B4: murine antibody m11-1F4 (antibody, V domains shown)
VH: B3 VH
VL: B1 VL with S7T, T14S, Q17D, P18Q, R44K, R50K, V88L
notes: Murine IgG1 kappa; also called murine 11-1F4; m1-1F4
On to B4, for which the “Max (maximal level of binding)” value is 184 in [4], 209 in assay [8], approximately 1510 in assay [9] and approximately 35100 in [10].

B5: VH9/VL4-p5 (humanized VH9/VL4 with peptide p5 fused to the N-terminal of the light chain) (antibody, V domains shown)
VH: B1 VH with V37I, L67V, S68T, K71V, N76S, F78V, S79L, L80F, T92V, V96A
VL: B1 VL with Y41F, L42Q, L90V
B5: the results for the percent bound in [11], in [1] and in [6] were 1.33%, 24.7% and 54.4%, respectively. In addition, the EC50 was 24.5 nM in assay [12] and 4.05 nM in assay [4]. Moreover, the LogEC50 in assay [12] is 7.61 -log(M); in assay [4], 8.39 -log(M). Further, the “Max (maximal level of binding)” value in assay [12] is 58.1; in [4], 71.

B6: VH9/VL4-p5R (humanized VH9/VL4 with peptide p5R fused to the N-terminal of the light chain) (antibody, V domains shown)
VH: B1 VH with V37I, L67V, S68T, K71V, N76S, F78V, S79L, L80F, T92V, V96A
VL: B1 VL with Y41F, L42Q, L90V
B6: the percent bound in assay [11] was determined as 1.12%; in assay [1], 22.6%; in assay [6], 50.2%. Moreover, the values for the EC50 in assay [12] and in [4] were 14 nM and 3.91 nM, respectively. In addition, the figures for the LogEC50 in [12] and in [4] were 7.86 -log(M) and 8.41 -log(M), respectively. Moreover, the “Max (maximal level of binding)” value in assay [12] amounted to 55.7; in assay [4], 82.7.

B7: VH9 + VL4-G34V (antibody, V domains shown)
VH: B1 VH with V37I, L67V, S68T, K71V, N76S, F78V, S79L, L80F, T92V, V96A
VL: B1 VL with G34V, Y41F, L42Q, L90V
For the molecule B7, in assay [13], binding was characterised by a dissociation constant (Kd) of 35 nM, the koff stood at 0.00146 s⁻¹ and the kon is 41800 M⁻¹ s⁻¹.

B8: murine Ig-peptide fusion Igp5 (murine 11-1F4 with peptide p5 fused to the N-terminus of the light chain) (antibody)
heavy: B3 VH
light: AQAGQAGQAQGGGYSKAQKAQAKQAKQAQKAQKAQAKQAKQVTPTVDVVMTQTPLSLPVSLGDQASISCRSSQSLVHRNGNTYLHWYLQKPGQSPKLLIYKVSNRFSGVPDRFSGSGSGTDFTLKISRVEAEDLGLYFCFQTTYVPNTFGGGTKLEIK
notes: Antibody-peptide fusion; unlabelled in the EuLISA; also called mIgp5; mIgG-p5; not shown: murine 11-1F4 (IgG1) CH1 followed by murine IgG2a CH2-CH3 (pFUSE-mIgG2A-Fc); murine 11-1F4 kappa constant region (CL)
As to B8, the percent bound in assay [1] is 71%; in assay [14], 31%; in assay [15], 17%; in assay [16], 34%; in assay [17] it was 37%; in assay [18] it was 10%. For the same molecule, the percent bound in [19] came out at 21%. Besides, the “fold higher binding than murine 11-1F4” value in assay [20] was 21 fold. Also, the EC50 in assay [4] stood at 2.88 nM; in assay [8], 6.24 nM; in [9] it was 2.94 nM; in assay [10], 3.37 nM. In addition, the LogEC50 in assay [4] was 8.54 -log(M); in [8], 8.21 -log(M); in [9], 8.53 -log(M); in assay [10], 8.47 -log(M). The “Max (maximal level of binding)” value in assay [4] was determined as 58.5; in [8], 31.7; in assay [9], 24; in [10] it was 24.6.
